B1: N-CAR SIRPA (SEQ ID No 1999 with intracellular domain SEQ ID No 2011) (other)
chain: EVQLQQSGPELVKPGTSVRISCKTSGYTFTEYTIHWVKQSHGKSLEWIGNINPNNGGTTYNQKFEDKATLTVDKSSSTAYMELRSLTSEDSAVYYCAAGWNFDYWGQGTTVTVSSGGGGSGGGGSGGGGSDIVMTQSHKFMSTSVGDRVSIICKASQDVGTAVDWYQQKPGQSPKLLIYWASTRHTGVPDRFTGSGSGTDFTLTITNVQSEDLADYFCQQYNSYPLTFGAGTMLDLKRAAATERRAEVPTAHPSPSPRPAGQFQTLVVGVVGGLLGSLVLLVWVLAVIRIRQKKAQGSTSSTRLHEPEKNAREITQDTNDITYADLNLPKGKKPAPQAAEPNNHTEYASIQTSPQPASEDTLTYADLDMVHLNRTPKQPAPKPEPSFSEYASVQVPRK
B2: N-CAR PECAM (SEQ ID No 1999 with intracellular domain SEQ ID No 2009) (other)
chain: EVQLQQSGPELVKPGTSVRISCKTSGYTFTEYTIHWVKQSHGKSLEWIGNINPNNGGTTYNQKFEDKATLTVDKSSSTAYMELRSLTSEDSAVYYCAAGWNFDYWGQGTTVTVSSGGGGSGGGGSGGGGSDIVMTQSHKFMSTSVGDRVSIICKASQDVGTAVDWYQQKPGQSPKLLIYWASTRHTGVPDRFTGSGSGTDFTLTITNVQSEDLADYFCQQYNSYPLTFGAGTMLDLKRAAATERRAEVPTAHPSPSPRPAGQFQTLVVGVVGGLLGSLVLLVWVLAVIKCYFLRKAKAKQMPVEMSRPAVPLLNSNNEKMSDPNMEANSHYGHNDDVRNHAMKPINDNKEPLNSDVQYTEVQVSSAESHKDLGKKDTETVYSEVRKAVPDAVESRYSRTEGSLDGT
B3: N-CAR PD1-L2-ITSM (SEQ ID No 1999 with intracellular domain SEQ ID No 2012) (other)
chain: EVQLQQSGPELVKPGTSVRISCKTSGYTFTEYTIHWVKQSHGKSLEWIGNINPNNGGTTYNQKFEDKATLTVDKSSSTAYMELRSLTSEDSAVYYCAAGWNFDYWGQGTTVTVSSGGGGSGGGGSGGGGSDIVMTQSHKFMSTSVGDRVSIICKASQDVGTAVDWYQQKPGQSPKLLIYWASTRHTGVPDRFTGSGSGTDFTLTITNVQSEDLADYFCQQYNSYPLTFGAGTMLDLKRAAATERRAEVPTAHPSPSPRPAGQFQTLVVGVVGGLLGSLVLLVWVLAVICSRAARGTIGARRTGQPLKEDPSAVPVFSVDYGELDFQWREKTPEPPVPCVPEQTEYATIDFQWREKTPEPPVPCVPEQTEYATIVFPSGMGTSSPARRGSADGPRSAQPLRPEDGHCSWPL
B4: N-CAR PD1-PD1 (SEQ ID No 1999 with intracellular domain SEQ ID No 2005) (other)
chain: EVQLQQSGPELVKPGTSVRISCKTSGYTFTEYTIHWVKQSHGKSLEWIGNINPNNGGTTYNQKFEDKATLTVDKSSSTAYMELRSLTSEDSAVYYCAAGWNFDYWGQGTTVTVSSGGGGSGGGGSGGGGSDIVMTQSHKFMSTSVGDRVSIICKASQDVGTAVDWYQQKPGQSPKLLIYWASTRHTGVPDRFTGSGSGTDFTLTITNVQSEDLADYFCQQYNSYPLTFGAGTMLDLKRAAATERRAEVPTAHPSPSPRPAGQFQTLVVGVVGGLLGSLVLLVWVLAVICSRAARGTIGARRTGQPLKEDPSAVPVFSVDYGELDFQWREKTPEPPVPCVPEQTEYATIVFPSGMGTSSPARRGSADGPRSAQPLRPEDGHCSWPLCSRAARGTIGARRTGQPLKEDPSAVPVFSVDYGELDFQWREKTPEPPVPCVPEQTEYATIVFPSGMGTSSPARRGSADGPRSAQPLRPEDGHCSWPL
B5: N-CAR SIGLEC9 (SEQ ID No 1999 with intracellular domain SEQ ID No 2010) (other)
chain: EVQLQQSGPELVKPGTSVRISCKTSGYTFTEYTIHWVKQSHGKSLEWIGNINPNNGGTTYNQKFEDKATLTVDKSSSTAYMELRSLTSEDSAVYYCAAGWNFDYWGQGTTVTVSSGGGGSGGGGSGGGGSDIVMTQSHKFMSTSVGDRVSIICKASQDVGTAVDWYQQKPGQSPKLLIYWASTRHTGVPDRFTGSGSGTDFTLTITNVQSEDLADYFCQQYNSYPLTFGAGTMLDLKRAAATERRAEVPTAHPSPSPRPAGQFQTLVVGVVGGLLGSLVLLVWVLAVIVRSCRKKSARPAAGVGDTGIEDANAVRGSASQGPLTEPWAEDSPPDQPPPASARSSVGEGELQYASLSFQMVKPWDSRGQEATDTEYSEIKIHR
B6: N-CAR PD1-TIM3 (SEQ ID No 1999 with intracellular domain SEQ ID No 2006) (other)
chain: EVQLQQSGPELVKPGTSVRISCKTSGYTFTEYTIHWVKQSHGKSLEWIGNINPNNGGTTYNQKFEDKATLTVDKSSSTAYMELRSLTSEDSAVYYCAAGWNFDYWGQGTTVTVSSGGGGSGGGGSGGGGSDIVMTQSHKFMSTSVGDRVSIICKASQDVGTAVDWYQQKPGQSPKLLIYWASTRHTGVPDRFTGSGSGTDFTLTITNVQSEDLADYFCQQYNSYPLTFGAGTMLDLKRAAATERRAEVPTAHPSPSPRPAGQFQTLVVGVVGGLLGSLVLLVWVLAVICSRAARGTIGARRTGQPLKEDPSAVPVFSVDYGELDFQWREKTPEPPVPCVPEQTEYATIVFPSGMGTSSPARRGSADGPRSAQPLRPEDGHCSWPLFKWYSHSKEKIQNLSLISLANLPPSGLANAVAEGIRSEENIYTIEENVYEVEEPNEYYCYVSSRQQPSQPLGCRFAMP
B7: N-CAR LY9 (SEQ ID No 1999 with intracellular domain SEQ ID No 2008) (other)
chain: EVQLQQSGPELVKPGTSVRISCKTSGYTFTEYTIHWVKQSHGKSLEWIGNINPNNGGTTYNQKFEDKATLTVDKSSSTAYMELRSLTSEDSAVYYCAAGWNFDYWGQGTTVTVSSGGGGSGGGGSGGGGSDIVMTQSHKFMSTSVGDRVSIICKASQDVGTAVDWYQQKPGQSPKLLIYWASTRHTGVPDRFTGSGSGTDFTLTITNVQSEDLADYFCQQYNSYPLTFGAGTMLDLKRAAATERRAEVPTAHPSPSPRPAGQFQTLVVGVVGGLLGSLVLLVWVLAVIKRKGRCSVPAFCSSQAEAPADTPEPTAGHTLYSVLSQGYEKLDTPLRPARQQPTPTSDSSSDSNLTTEEDEDRPEVHKPISGRYEVFDQVTQEGAGHDPAPEGQADYDPVTPYVTEVESVVGENTMYAQVFNLQGKTPVSQKEESSATIYCSIRKPQVVPPPQQNDLEIPESPTYENFT
B8: N-CAR PD1-L2-ITSM-L2-ITSM (SEQ ID No 1999 with intracellular domain SEQ ID No 2013) (other)
chain: EVQLQQSGPELVKPGTSVRISCKTSGYTFTEYTIHWVKQSHGKSLEWIGNINPNNGGTTYNQKFEDKATLTVDKSSSTAYMELRSLTSEDSAVYYCAAGWNFDYWGQGTTVTVSSGGGGSGGGGSGGGGSDIVMTQSHKFMSTSVGDRVSIICKASQDVGTAVDWYQQKPGQSPKLLIYWASTRHTGVPDRFTGSGSGTDFTLTITNVQSEDLADYFCQQYNSYPLTFGAGTMLDLKRAAATERRAEVPTAHPSPSPRPAGQFQTLVVGVVGGLLGSLVLLVWVLAVICSRAARGTIGARRTGQPLKEDPSAVPVFSVDYGELDFQWREKTPEPPVPCVPEQTEYATIDFQWREKTPEPPVPCVPEQTEYATIDFQWREKTPEPPVPCVPEQTEYATIVFPSGMGTSSPARRGSADGPRSAQPLRPEDGHCSWPL
B9: N-CAR CD300LF (SEQ ID No 1999 with intracellular domain SEQ ID No 2007) (other)
chain: EVQLQQSGPELVKPGTSVRISCKTSGYTFTEYTIHWVKQSHGKSLEWIGNINPNNGGTTYNQKFEDKATLTVDKSSSTAYMELRSLTSEDSAVYYCAAGWNFDYWGQGTTVTVSSGGGGSGGGGSGGGGSDIVMTQSHKFMSTSVGDRVSIICKASQDVGTAVDWYQQKPGQSPKLLIYWASTRHTGVPDRFTGSGSGTDFTLTITNVQSEDLADYFCQQYNSYPLTFGAGTMLDLKRAAATERRAEVPTAHPSPSPRPAGQFQTLVVGVVGGLLGSLVLLVWVLAVIWRMMKYQQKAAGMSPEQVLQPLEGDLCYADLTLQLAGTSPQKATTKLSSAQVDQVEVEYVTMASLPKEDISYASLTLGAEDQEPTYCNMGHLSSHLPGRGPEEPTEYSTISRP

biological target: T1, biotinylated recombinant human PSMA-human IgG1 Fc fusion protein (human, UniProt Q04609 44-750, biotinylated (sites not given)); experiment: flow cytometry, reporter Jurkat cells co-expressing P-CAR1 (FIGS. 1-4)
T1 construct: Staining reagent; not shown: human IgG1 Fc
T1 sequence (Q04609 44-750 limits assumed): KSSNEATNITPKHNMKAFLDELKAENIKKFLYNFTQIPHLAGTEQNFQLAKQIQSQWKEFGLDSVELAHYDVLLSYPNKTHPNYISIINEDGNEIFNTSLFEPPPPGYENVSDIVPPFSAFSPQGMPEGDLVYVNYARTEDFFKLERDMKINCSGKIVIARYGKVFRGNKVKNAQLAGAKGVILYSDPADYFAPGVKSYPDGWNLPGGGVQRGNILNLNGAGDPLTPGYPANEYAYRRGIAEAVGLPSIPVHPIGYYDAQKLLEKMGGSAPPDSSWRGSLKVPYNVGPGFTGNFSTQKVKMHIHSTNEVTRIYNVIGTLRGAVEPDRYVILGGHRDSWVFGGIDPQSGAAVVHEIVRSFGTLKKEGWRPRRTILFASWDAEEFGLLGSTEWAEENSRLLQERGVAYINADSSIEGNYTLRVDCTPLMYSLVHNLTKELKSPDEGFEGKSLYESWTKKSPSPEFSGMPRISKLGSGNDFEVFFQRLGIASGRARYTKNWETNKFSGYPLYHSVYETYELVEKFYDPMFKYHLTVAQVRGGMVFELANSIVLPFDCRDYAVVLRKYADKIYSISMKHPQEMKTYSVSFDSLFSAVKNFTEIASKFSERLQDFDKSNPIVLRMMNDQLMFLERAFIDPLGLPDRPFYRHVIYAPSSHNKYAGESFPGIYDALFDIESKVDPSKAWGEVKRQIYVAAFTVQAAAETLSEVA

Binding result, binds:
B1, B2, B3, B4, B5, B6, B7, B8, B9
